Test results from the supplement of paper PMC10126150.
± gives the standard deviation of the averaged measurements.

Tested on: ATP
Assay: switch fluorescence ratio, 500 uM ATP over buffer (Cy3 cluster intensity, sum of 5 cycles each) (fold (ratio)); higher = stronger signal-on switching upon ATP binding; sequences stand for … in TCGTCGGCAGCGTCAGATGTGTATAAGAGACAGTTTTTTTTTTTTTTTTTTTTTTTTT…TC
Settings: aptamer strand: ATP DNA aptamer (quencher-CACCTGGGGGAGTATTGCGGAGGAAGG + anchor), 100 nM annealed; ATP concentration: 500 uM
Procedure, shortened: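 After annealing to 100 nM quencher-labelled ATP aptamer, Cy3-labelled switching-strand clusters on a modified Illumina MiSeq flow-cell were imaged in selection buffer. A second image followed after 15 min with 500 uM ATP at 22 °C, and five such buffer/ATP cycles were done, each separated by NaOH stripping and re-annealing. The fluorescence ratio, averaged per switch-domain sequence, is summed target-cycle over summed buffer-cycle Cy3 intensity per cluster, with clusters outside 100-1000 RFU excluded.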
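Also: ATP exposure 15 min at 22 °C before imaging.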

| Sequence | switch fluorescence ratio |
| --- | --- |
| TACGGTGTGC | 0.989 ± 0.024 |
| TACGGTTCGC | 1.02 ± 0.019 |
| TACGTAGGGT | 1.19 ± 0.28 |
| TACGTATTCC | 1.171 ± 0.011 |
| TACGTCACCT | 1.71 ± 0.048 |
| TACGTCGCTG | 0.971 ± 0.023 |
| TACGTCTTAG | 0.972 ± 0.048 |
| TACGTGTTTT | 1 ± 0.0081 |
| TACGTTGAAA | 1.17 ± 0.19 |
| TACGTTGGGG | 1 ± 0.028 |
| TACGTTTTCT | 1.02 ± 0.049 |
| TACTAATTGG | 0.9961 ± 0.0086 |
| TACTACGTGC | 1.28 ± 0.019 |
| TACTAGGCAA | 1.21 ± 0.04 |
| TACTATACGA | 1.367 ± 0.0015 |
| TACTCCATAT | 1.14 ± 0.019 |
| TACTCGTGGT | 1 ± 0.064 |
| TACTCTGAAA | 2.38 ± 0.48 |
| TACTCTGGAA | 4.15 ± 0.18 |
| TACTGAGTTA | 1 ± 0.015 |
| TACTGATTCA | 1.02 ± 0.025 |
| TACTGCATAG | 1.044 ± 0.0091 |

| Sequence | switch fluorescence ratio |
| --- | --- |
| TACTGCGGCA | 1.04 ± 0.031 |
| TACTGGGCTT | 1.024 ± 0.0014 |
| TACTGGGGCA | 0.9842 ± 0.0028 |
| TACTGTGTAT | 1.01 ± 0.035 |
| TACTGTTCGA | 1.05 ± 0.016 |
| TACTTAAAGT | 1 ± 0.022 |
| TACTTACTCG | 1.241 ± 0.0038 |
| TACTTATCTG | 1.01 ± 0.019 |
| TACTTCTGTG | 1 ± 0.018 |
| TACTTGAGGG | 1.01 ± 0.019 |
| TACTTGGTT | 1.01 ± 0.02 |
| TACTTTGTC | 1.03 ± 0.021 |
| TACTTTGTGA | 1.1 ± 0.15 |
| TACTTTTGGA | 1.02 ± 0.04 |
| TACTTTTTAT | 1.01 ± 0.018 |
| TAGAAACCCG | 1.04 ± 0.024 |
| TAGAAAGACT | 1.07 ± 0.067 |
| TAGAAATGGG | 1.19 ± 0.33 |
| TAGAAGAAGG | 0.9842 ± 0.0031 |
| TAGAAGCCCC | 1.09 ± 0.039 |
| TAGAAGCCTG | 1.03 ± 0.053 |
| TAGAAGGGGC | 0.989 ± 0.067 |

| Sequence | switch fluorescence ratio |
| --- | --- |
| TAGAAGTTGT | 1 ± 0.022 |
| TAGAATGGCC | 1.01 ± 0.041 |
| TAGAATGTGG | 0.994 ± 0.042 |
| TAGACCGTTC | 1.108 ± 0.0068 |
| TAGACGTAGG | 1.03 ± 0.028 |
| TAGAGAAGCC | 1.04 ± 0.025 |
| TAGAGAGCT | 1.02 ± 0.015 |
| TAGAGAGGCG | 0.9981 ± 0.0084 |
| TAGAGCTAAT | 1.09 ± 0.17 |
| TAGAGCTGTT | 0.969 ± 0.031 |
| TAGAGGCCTG | 1.04 ± 0.017 |
| TAGAGGGATG | 0.989 ± 0.015 |
| TAGAGGGGAA | 1.024 ± 0.0034 |
| TAGAGGGGG | 1.01 ± 0.014 |
| TAGAGGTAAT | 1.01 ± 0.022 |
| TAGAGGTCTT | 0.98 ± 0.016 |
| TAGAGTAGTG | 0.999 ± 0.05 |
| TAGAGTTAAG | 0.9747 ± 0.0046 |
| TAGATAAATT | 0.9965 ± 0.008 |
| TAGATATGCG | 1.03 ± 0.015 |
| TAGATATTTA | 1.01 ± 0.0087 |
| TAGATGCACA | 0.9516 ± 0.0037 |

| Sequence | switch fluorescence ratio |
| --- | --- |
| TAGATGGGGG | 1 ± 0.011 |
| TAGATGTAAC | 0.975 ± 0.029 |
| TAGATGTTCG | 0.978 ± 0.044 |
| TAGATTGATG | 1.0281 ± 0.00078 |
| TAGATTTGTT | 1.01 ± 0.03 |
| TAGATTTTTA | 0.987 ± 0.028 |
| TAGATTTTTT | 1.02 ± 0.019 |
| TAGCAAAGAA | 1.03 ± 0.03 |
| TAGCACAGTG | 1.15 ± 0.15 |
| TAGCAGGCTA | 1 ± 0.013 |
| TAGCAGGGTC | 1.089 ± 0.0072 |
| TAGCATAACC | 1.181 ± 0.0097 |
| TAGCATGCGG | 1.01 ± 0.019 |
| TAGCATGTTC | 1.09 ± 0.049 |
| TAGCATTCTA | 1.013 ± 0.0054 |
| TAGCATTTTT | 1.07 ± 0.14 |
| TAGCCAAGTC | 1.02 ± 0.01 |
| TAGCCAGGGG | 1.2 ± 0.076 |
| TAGCCATTGG | 1.05 ± 0.081 |
